Measurements from paper doi:10.1101/2020.10.19.345710 (bioRxiv, 2020).

Target: the molecule itself
Assay: thioflavin T fluorescence

| Protein | binding result |
| --- | --- |
| FUS LC, low complexity domain of Fused in sarcoma (FUS), residues 1-163 (domain or fragment, UniProt P35637 1-163, looked up) MASNDYTQQATQSYGAYPTQPGQGYSQQSSQPYGQQSYSGYSQSTDTSGYGQSSYSSYGQSQNTGYGTQSTPQGYGSTGGYGSSQSSQSSYGQQSSYPGYGQQPAPSSTSGSYGSSSQSSSYGQPQSGSYSQQPSYGGQQQSYGQQQSYNPPQGYGQQNQYNS | binds |
| FUS LC G156E, low complexity domain of FUS (residues 1-163) with the pathogenic G156E mutation (domain or fragment, UniProt P35637 1-163, looked up) MASNDYTQQATQSYGAYPTQPGQGYSQQSSQPYGQQSYSGYSQSTDTSGYGQSSYSSYGQSQNTGYGTQSTPQGYGSTGGYGSSQSSQSSYGQQSSYPGYGQQPAPSSTSGSYGSSSQSSSYGQPQSGSYSQQPSYGGQQQSYGQQQSYNPPQGYEQQNQYNS | binds |
